Consider one substance from paper PMC2289352.

This assay addresses S1 triple mutant containing all three substitutions L108D, L112D, and V117D. Nature of the assay: SEC.

As to “S1 triple mutant containing all three substitutions L108D, L112D, and V117D (domain or fragment)”, the protein eluting in the void volume of Sephacryl S200 (self-association) was greater than 50%.
